This is an account of results in article PMC9160799, “PET Imaging of Acidic Tumor Environment With ^89Zr-labeled pHLIP Probes” (Frontiers in Oncology, 2022).

One series concerns RM-1 tumor allografts. The experiment in a line: Post-mortem biodistribution, RM-1 tumor model. The class given is in vivo, male athymic nude mice. The conditions noted are these: mouse, in vivo, iv, 1.2 nmol, 48 h. On the procedure:
(§1) The media were provided by the MSK Media Preparation Core. […] Another aliquot was diluted with the medium so that 50 µL contained 1×10^6 cells.
(§2) The imaging and biodistribution studies were performed with male (RM-1 model) and female (4T1 model) athymic nude mice and the kidney-blocking experiments were performed with female SCID mice received from Charles River Laboratories (Stone Ridge, NY). After arrival, the mice were kept in the MSK vivarium for one week before any experimental handling was performed. The animals were allowed free access to water and food, and all animal care and experimental procedures were approved by the Institutional Animal Care and Use Committee (IACUC). For the subcutaneous allografts, a 1-to-1 ratio of Corning Matrigel Matrix and the cell solution was prepared and stored on ice for the injections. Each mouse received a subcutaneous injection of 100 µL (50 µL cell solution, viability > 90%, + 50 µL Matrigel) into the flank on the level of the right shoulder. The injections were performed under anesthesia (2% isoflurane, Baxter Healthcare, Deerfield, IL, USA).
(§3) The mice were intravenously injected (tail vein) with the radiolabeled pHLIP conjugates (1.2 nmol, 7.4 MBq/200 µCi, 100 µL, in sterile filtered PBS). The activity of the syringe prior to injection and after injection was used to determine the percent of injectate administered.
(§4) For the biodistribution studies the tumor-bearing mice were randomized before the injections. Only mice with suitable tumors (150–300 mm^3) were utilized. An exception was made for the 120-hour timepoint, for which only mice with smaller tumors (150 mm^3) were selected. The mice were grouped in cohorts of four. At the respective timepoint, the mice were euthanized (by CO2 asphyxiation, followed by cervical dislocation) and their blood was collected by cardiac puncture as a terminal procedure, followed by quick removal of the tumors. After this, the other organs/samples were collected. […] The exact activities of all samples of one mouse were determined by an Capintec® CRC-55tR dose calibrator. These decay-corrected measurements were used to determine a calibration factor and calibrate all counts to the corresponding activities. Activity concentrations were calculated as percentage injected dose per tissue weight (%ID/g wet tissue). All data was processed and visualized using Origin 8.5.

A short description of series [1]: Post-mortem biodistribution, RM-1 tumor model. It counts as in vivo, male athymic nude mice. The conditions noted are these: male, athymic nude, mouse, in vivo, iv, 1.2 nmol, total radioactivity. The protocol:
as §1, §2, §3, §4

A short description of the next series: in vivo. Set-up: species or system female athymic nude mice. The conditions noted are these: female, athymic nude, mouse, iv, 1.2 nmol, total radioactivity. On the procedure:
as §1, §2, §3, §4

`CC(=O)N[C@H](C)C(=O)N[C@H](CCCCNC(=S)Nc1ccc(NC(=S)NCCCCCN(O)C(=O)CCC(=O)NCCCCCN(O)C(=O)CCC(=O)NCCCCCN(O)C(C)=O)cc1)C(=O)N[C@H](CC(=O)O)C(=O)N[C@H](CC(=O)O)C(=O)N[C@H](CCC(N)=O)C(=O)N[C@H](CC(N)=O)C(=O)N1CCC[C@@H]1C(=O)N[C@H](Cc1c[nH]c2ccccc12)C(=O)N[C@H](CCCNC(=N)N)C(=O)N[C@H](C)C(=O)N[C@H](Cc1ccc(O)cc1)C(=O)N[C@H](CC(C)C)C(=O)N[C@H](CC(=O)O)C(=O)N[C@H](CC(C)C)C(=O)N[C@H](CC(C)C)C(=O)N[C@H](Cc1ccccc1)C(=O)N1CCC[C@@H]1C(=O)N[C@@H](C(=O)N[C@H](CC(=O)O)C(=O)N[C@@H](C(=O)N[C@H](CC(C)C)C(=O)N[C@H](CC(C)C)C(=O)N[C@H](CC(C)C)C(=O)N[C@H](CC(=O)O)C(=O)N[C@H](CC(C)C)C(=O)N[C@H](CC(C)C)C(=O)N[C@H](Cc1c[nH]c2ccccc12)C(=O)N[C@H](C)C(=O)O)[C@H](C)O)[C@H](C)O` (89Zr complex, metal not drawn) [DFO-Lys-Var3] displayed a Tumor uptake with RM-1 tumor allografts of 6.9 ± 1.9 %ID/g. Further, the tissue uptake (in general, the percentage of the injected dose found per gram of tissue) at 48 h was 0.5 ± 0.1 %ID/g in series [1] (Blood uptake); 0.06 ± 0.01 %ID/g in series [1] (Brain uptake); 1.3 ± 0.03 %ID/g in series [1] (Heart uptake); 27.9 ± 3.6 %ID/g in series [1] (Kidneys uptake); 8.7 ± 0.8 %ID/g in series [1] (Liver uptake); 2 ± 0.6 %ID/g in series [1] (Lungs uptake). The tissue uptake at 48 h in series [1] (Muscle uptake) was 0.5 ± 0.1 %ID/g; in series [1] (Pancreas uptake), 1 ± 0.2 %ID/g; in series [1] (Skin uptake) it was 1.7 ± 0.3 %ID/g; in series [1] (Spleen uptake), 7.2 ± 0.7 %ID/g; in series [1] (Tibia uptake) it was 1.4 ± 0.2 %ID/g.

In turn, `CC(=O)N[C@H](C)C(=O)N[C@H](CCCCNc1c(NCCCCCN(O)C(=O)CCC(=O)NCCCCCN(O)C(=O)CCC(=O)NCCCCCN(O)C(C)=O)c(=O)c1=O)C(=O)N[C@H](CC(=O)O)C(=O)N[C@H](CC(=O)O)C(=O)N[C@H](CCC(N)=O)C(=O)N[C@H](CC(N)=O)C(=O)N1CCC[C@@H]1C(=O)N[C@H](Cc1c[nH]c2ccccc12)C(=O)N[C@H](CCCNC(=N)N)C(=O)N[C@H](C)C(=O)N[C@H](Cc1ccc(O)cc1)C(=O)N[C@H](CC(C)C)C(=O)N[C@H](CC(=O)O)C(=O)N[C@H](CC(C)C)C(=O)N[C@H](CC(C)C)C(=O)N[C@H](Cc1ccccc1)C(=O)N1CCC[C@@H]1C(=O)N[C@@H](C(=O)N[C@H](CC(=O)O)C(=O)N[C@@H](C(=O)N[C@H](CC(C)C)C(=O)N[C@H](CC(C)C)C(=O)N[C@H](CC(C)C)C(=O)N[C@H](CC(=O)O)C(=O)N[C@H](CC(C)C)C(=O)N[C@H](CC(C)C)C(=O)N[C@H](Cc1c[nH]c2ccccc12)C(=O)N[C@H](C)C(=O)O)[C@H](C)O)[C@H](C)O` (89Zr complex, metal not drawn) [DFOsqa-Lys-Var3] returned a Tumor uptake with RM-1 tumor allografts of 12.4 ± 4.7 %ID/g. Further, the tissue uptake at 48 h in series [1] (Blood uptake) is 0.3 ± 0.03 %ID/g; in series [1] (Brain uptake), 0.06 ± 0.02 %ID/g; in series [1] (Heart uptake), 1.6 ± 0.1 %ID/g; in series [1] (Kidneys uptake), 82.5 ± 14.2 %ID/g; in series [1] (Liver uptake), 10.8 ± 2.1 %ID/g; in series [1] (Lungs uptake), 2.5 ± 0.6 %ID/g. Further, the tissue uptake at 48 h in series [1] (Pancreas uptake) was 1.2 ± 0.1 %ID/g; in series [1] (Skin uptake), 2.1 ± 0.07 %ID/g; in series [1] (Spleen uptake), 6.4 ± 1.4 %ID/g; in series [1] (Tibia uptake), 1.6 ± 0.1 %ID/g; in the series “in vivo” (Blood uptake), 0.4 ± 0.01 %ID/g; in the series “in vivo” (Brain uptake), 0.04 ± 0.01 %ID/g. The tissue uptake at 48 h in “in vivo” (Heart uptake) came out at 1.3 ± 0.06 %ID/g; in “in vivo” (Kidneys uptake) it was 82.5 ± 10.9 %ID/g; in “in vivo” (Liver uptake), 11.2 ± 1 %ID/g; in “in vivo” (Lungs uptake), 1.4 ± 0.2 %ID/g; in the series “in vivo” (Muscle uptake) it was 0.5 ± 0.04 %ID/g; in “in vivo” (Pancreas uptake), 0.8 ± 0.1 %ID/g. In addition, the tissue uptake at 48 h in the series “in vivo” (Skin uptake) worked out at 2.6 ± 0.4 %ID/g; in “in vivo” (Spleen uptake), 6.9 ± 0.6 %ID/g; in the series “in vivo” (Tibia uptake), 1.5 ± 0.2 %ID/g; in the series “in vivo” (Tumor uptake), 10.2 ± 1.2 %ID/g.
